PMC10397247
Blank lines part the entries; values can stand above or below the binder they belong to.

What was measured:
4H_BCR = molecular target: T1, 4H_BCR; test: two-hybrid library CCmax; settings: mean of both orientations;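 note: natural log of median RNA to DNA barcode read ratio; higher means stronger binding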
T1 chain: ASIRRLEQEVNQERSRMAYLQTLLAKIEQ

4H895-AA = molecular target: T2, 4H895-AA; test: two-hybrid library CCmax; settings: mean of both orientations;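 note: natural log of median RNA to DNA barcode read ratio; higher means stronger binding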
T2 chain: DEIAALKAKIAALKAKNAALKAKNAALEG

4H_GCN4 = test: two-hybrid library CCmax; settings: mean of both orientations;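 note: natural log of median RNA to DNA barcode read ratio; higher means stronger binding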
4H_GCN4, sequence (chain, as listed by the source): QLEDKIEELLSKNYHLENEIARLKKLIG

4H3782-AA = molecular target: T3, 4H3782-AA; test: two-hybrid library CCmax; settings: mean of both orientations;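 note: natural log of median RNA to DNA barcode read ratio; higher means stronger binding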
T3 chain: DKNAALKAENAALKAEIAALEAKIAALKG

4H_APH = molecular target: T4, 4H_APH; test: two-hybrid library CCmax; settings: mean of both orientations;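 note: natural log of median RNA to DNA barcode read ratio; higher means stronger binding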
T4 chain: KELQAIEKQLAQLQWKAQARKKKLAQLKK

4H3705-AA = molecular target: T5, 4H3705-AA; test: two-hybrid library CCmax;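 note: natural log of median RNA to DNA barcode read ratio; higher means stronger binding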
T5 chain: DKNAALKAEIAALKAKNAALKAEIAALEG

GCN2_T = test: two-hybrid library CCmax
4H465-AA = molecular target: T6, 4H465-AA; test: two-hybrid library CCmax; settings: mean of both orientations
T6 chain: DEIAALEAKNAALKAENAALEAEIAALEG

4H58-AA = molecular target: T7, 4H58-AA; test: two-hybrid library CCmax; settings: mean of both orientations
T7 chain: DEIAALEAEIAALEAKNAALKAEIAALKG

4H535-AA = molecular target: T8, 4H535-AA; test: two-hybrid library CCmax; settings: mean of both orientations
T8 chain: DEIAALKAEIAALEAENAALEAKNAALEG

4H486-AA = molecular target: T9, 4H486-AA; test: two-hybrid library CCmax; settings: mean of both orientations
T9 chain: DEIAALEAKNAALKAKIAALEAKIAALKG

4H730-bH = molecular target: T10, 4H730-bH; test: two-hybrid library CCNG1
T10 chain: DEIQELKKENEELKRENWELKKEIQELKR

4H3381-bH = molecular target: T11, 4H3381-bH; test: two-hybrid library CCNG1
T11 chain: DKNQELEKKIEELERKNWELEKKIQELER

4H370-bH = molecular target: T12, 4H370-bH; test: two-hybrid library CCNG1
T12 chain: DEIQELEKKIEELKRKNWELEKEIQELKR

4H3297-bH = molecular target: T13, 4H3297-bH; test: two-hybrid library CCNG1
T13 chain: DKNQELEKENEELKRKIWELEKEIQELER

4H796-bH = molecular target: T14, 4H796-bH; test: two-hybrid library CCNG1
T14 chain: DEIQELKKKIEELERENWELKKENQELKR

4H932-bH = molecular target: T15, 4H932-bH; test: two-hybrid library CCNG1
T15 chain: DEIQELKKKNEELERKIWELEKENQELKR

4H3364-bH = molecular target: T16, 4H3364-bH; test: two-hybrid library CCNG1
T16 chain: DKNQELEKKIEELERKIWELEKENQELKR

4H349-bH = molecular target: T17, 4H349-bH; test: two-hybrid library CCNG1
T17 chain: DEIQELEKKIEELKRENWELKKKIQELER

4H949-bH = molecular target: T18, 4H949-bH; test: two-hybrid library CCNG1
T18 chain: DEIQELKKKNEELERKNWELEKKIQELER

4H56-bH = molecular target: T19, 4H56-bH; test: two-hybrid library CCNG1
T19 chain: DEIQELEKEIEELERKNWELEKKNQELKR

O8-bS = molecular target: T20, O8-bS; test: two-hybrid library CCNG1
T20 chain: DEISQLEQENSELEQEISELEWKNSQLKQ

O9-bS = molecular target: T21, O9-bS; test: two-hybrid library CCNG1
T21 chain: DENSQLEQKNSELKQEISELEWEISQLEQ

O7-bS = molecular target: T22, O7-bS; test: two-hybrid library CCNG1
T22 chain: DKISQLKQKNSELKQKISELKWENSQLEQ

4H953-bA = molecular target: T23, 4H953-bA; test: two-hybrid library CCNG1
T23 chain: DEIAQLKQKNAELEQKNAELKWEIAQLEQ

4H346-bA = molecular target: T24, 4H346-bA; test: two-hybrid library CCNG1
T24 chain: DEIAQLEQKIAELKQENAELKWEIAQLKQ

4H754-bA = molecular target: T25, 4H754-bA; test: two-hybrid library CCNG1
T25 chain: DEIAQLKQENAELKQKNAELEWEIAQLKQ

4H457-bA = molecular target: T26, 4H457-bA; test: two-hybrid library CCNG1
T26 chain: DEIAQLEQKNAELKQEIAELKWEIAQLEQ

4H575-bA = molecular target: T27, 4H575-bA; test: two-hybrid library CCNG1
T27 chain: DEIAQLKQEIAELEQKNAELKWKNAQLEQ

4H683-bA = molecular target: T28, 4H683-bA; test: two-hybrid library CCNG1
T28 chain: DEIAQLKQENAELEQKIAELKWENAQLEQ

4H797-bA = molecular target: T29, 4H797-bA; test: two-hybrid library CCNG1
T29 chain: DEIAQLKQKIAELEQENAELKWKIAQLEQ

4H3926-bA = molecular target: T30, 4H3926-bA; test: two-hybrid library CCNG1
T30 chain: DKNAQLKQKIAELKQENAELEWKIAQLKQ

4H855-bA = molecular target: T31, 4H855-bA; test: two-hybrid library CCNG1
T31 chain: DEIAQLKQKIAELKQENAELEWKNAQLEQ

4H968-bA = molecular target: T32, 4H968-bA; test: two-hybrid library CCNG1
T32 chain: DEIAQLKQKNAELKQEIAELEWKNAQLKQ

4H4073-bA = molecular target: T33, 4H4073-bA; test: two-hybrid library CCNG1
T33 chain: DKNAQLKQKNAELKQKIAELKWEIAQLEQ

4H918-bA = molecular target: T34, 4H918-bA; test: two-hybrid library CCNG1
T34 chain: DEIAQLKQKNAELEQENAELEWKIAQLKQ

4H780-bA = molecular target: T35, 4H780-bA; test: two-hybrid library CCNG1
T35 chain: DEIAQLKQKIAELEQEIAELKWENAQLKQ

P9-AA = molecular target: T36, P9-AA; test: two-hybrid library CCmax; settings: mean of both orientations
T36 chain: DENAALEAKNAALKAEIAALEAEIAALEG

P2-AA = molecular target: T37, P2-AA; test: two-hybrid library CCmax; settings: mean of both orientations
T37 chain: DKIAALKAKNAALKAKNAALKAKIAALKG

zCON9_A = molecular target: T38, zCON9_A; test: two-hybrid library CCmax
T38 chain: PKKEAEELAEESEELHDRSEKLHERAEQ

P3-AA = molecular target: T39, P3-AA; test: two-hybrid library CCmax; settings: mean of both orientations
T39 chain: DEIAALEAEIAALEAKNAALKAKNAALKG

P12-AA = molecular target: T40, P12-AA; test: two-hybrid library CCmax; settings: mean of both orientations
T40 chain: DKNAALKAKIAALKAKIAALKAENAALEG

P7-AA = molecular target: T41, P7-AA; test: two-hybrid library CCmax; settings: mean of both orientations
T41 chain: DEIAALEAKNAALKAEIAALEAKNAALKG

P8-AA = molecular target: T42, P8-AA; test: two-hybrid library CCmax; settings: mean of both orientations
T42 chain: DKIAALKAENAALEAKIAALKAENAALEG

zCON9_B = molecular target: T43, zCON9_B; test: two-hybrid library CCmax; settings: mean of both orientations
T43 chain: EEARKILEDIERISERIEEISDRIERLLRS

zCON9_D = molecular target: T44, zCON9_D; test: two-hybrid library CCmax
T44 chain: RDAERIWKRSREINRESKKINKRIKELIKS

P4-AA = molecular target: T45, P4-AA; test: two-hybrid library CCmax; settings: mean of both orientations
T45 chain: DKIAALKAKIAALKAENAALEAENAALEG

P11-AA = molecular target: T46, P11-AA; test: two-hybrid library CCmax
T46 chain: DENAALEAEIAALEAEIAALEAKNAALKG

B2: 4H3297-bH (peptide)
chain: DKNQELEKENEELKRKIWELEKEIQELER
- interaction score (4H730-bH): -0.0968
- interaction score (4H3381-bH): -0.113
- interaction score (4H370-bH): 0.804
- interaction score (4H3297-bH): 0.885
- interaction score (4H796-bH): -0.673
- interaction score (4H932-bH): -0.844
- interaction score (4H3364-bH): -0.362
- interaction score (4H349-bH): -0.0353
- interaction score (4H949-bH): -1.66
- interaction score (4H56-bH): -1.32

B4: 4H346-bA (peptide)
chain: DEIAQLEQKIAELKQENAELKWEIAQLKQ
- interaction score (4H953-bA): -1.6
- interaction score (4H346-bA): 1.48
- interaction score (4H754-bA): -0.388
- interaction score (4H457-bA): -0.833
- interaction score (4H575-bA): -0.114
- interaction score (4H683-bA): 0.357
- interaction score (4H797-bA): -0.562
- interaction score (4H3926-bA): 1.57
- interaction score (4H855-bA): 0.0345
- interaction score (4H968-bA): -0.648
- interaction score (4H4073-bA): -0.388
- interaction score (4H918-bA): -0.428
- interaction score (4H780-bA): -0.692

More lines, now with the values ahead:

- interaction score (4H_BCR): -1.43
- interaction score (4H895-AA): -1.78
- interaction score (4H_GCN4): -1.4
- interaction score (4H3782-AA): -1.26
- interaction score (4H_APH): -2.68
- interaction score (4H3705-AA): -1.2
- interaction score (GCN2_T): -1.92
- interaction score (4H465-AA): -1.21
- interaction score (4H58-AA): 0.517
- interaction score (4H535-AA): -0.26
- interaction score (4H486-AA): -1.65
B1: 4H3705-AA (peptide)
chain: DKNAALKAEIAALKAKNAALKAEIAALEG

- interaction score (O8-bS): 0.93
- interaction score (O9-bS): -1.07
- interaction score (O7-bS): -1.01
B3: O7-bS (peptide)
chain: DKISQLKQKNSELKQKISELKWENSQLEQ

- interaction score (P9-AA): -1.18
- interaction score (P2-AA): 0.243
- interaction score (zCON9_A): -1.48
- interaction score (P3-AA): -1.5
- interaction score (P12-AA): 1.97
- interaction score (P7-AA): -1.07
- interaction score (P8-AA): -1.23
- interaction score (zCON9_B): -0.891
- interaction score (zCON9_D): -1.93
- interaction score (P4-AA): 1.68
- interaction score (P11-AA): -1.19
B5: P11-AA (peptide)
chain: DENAALEAEIAALEAEIAALEAKNAALKG
